Sequences and labels used below:
B1: HisFLAG-PSF ΔRRM2 (natural protein)
chain: MSRDRFRSRGGGGGGFHRRGGGGGRGGLHDFRSPPPGMGLNQNRGPMGPGPGQSGPKPPIPPPPPHQQQQQPPPQQPPPQQPPPHQPPPHPQPHQQQQPPPPPQDSSKPVVAQGPGPAPGVGSAPPASSSAPPATPPTSGAPPGSGPGPTPTPPPAVTSAPPGAPPPTPPSSGVPTTPPQAGGPPPPPAAVPGPGPGPKQGPGPGGPKGGKMPGGPKPGGGPGLSTPGGHPKPPHRGGGEPRGGRQHHPPYHQQHHQGPPPGGPGGRSEEKISDSEGFKANLSLLRRPGEKTYTQRCRLFVGNLPADITEDEFKRLFAKYGEPGEVFINKGKGFGFIKLESRALAEIAKAELDDTPMRGRQLRVRFATHAGGSGHMLEQLDDEDGLPEKLAQKNPMYQKERETPPRFAQHGTFEYEYSQRWKSLDEMEKQQREQVEKNMKDAKDKLESEMEDAYHEHQANLLRQDLMRRQEELRRMEELHNQEMQKRKEMQLRQEEERRRREEEMMIRQREMEEQMRRQREESYSRMGYMDPRERDMRMGGGGAMNMGDPYGSGGQKFPPLGGGGGIGYEANPGVPPATMSGSMMGSDMRTERFGQGGAGPVGGQGPRGMGPGTPAGYGRGREEYEGPNKKPRF
notes: PSF (SFPQ) residues 1-370; linker joining the N- and C-terminal portions; PSF (SFPQ) residues 450-707; source: E. coli Rosetta(DE3)pLysS, purified (Ni-NTA, SEC); not shown: His6, N-terminal, kept; FLAG, N-terminal, kept
B2: GST-TRAP150 686–755 (PSF-interacting domain, PID) (domain or fragment, UniProt Q9Y2W1 686-755, looked up)
chain: FRKHGLAHDEMKSPREPGYKAEGKYKDDPVDLRLDIERRKKHKERDLKRGKSRESVDSRDSSHSRERSAE
notes: also called GST-TRAP(PID); TRAP150 PID; source: E. coli Rosetta(DE3)pLysS, purified (glutathione sepharose, SEC); not shown: GST, N-terminal, kept
B3: Gb1-tagged TRAP150 686–755 (TRAP-PID) (domain or fragment, UniProt Q9Y2W1 686-755, looked up)
chain: B2 chain
notes: 6xHis + GB1 fusion vector pGβ1; also called Gb1-tagged construct of the TRAP-PID; source: E. coli Rosetta(DE3)pLysS, purified (Ni-NTA, SEC)
B4: GST-TRAPΔN (TRAP150 266-955) (domain or fragment, UniProt Q9Y2W1 266-955, looked up)
chain: RPSPVPKPSPPLSSTSQMGSTLPSGAGYQSGTHQGQFDHGSGSLSPSKKSPVGKSPPSTGSTYGSSQKEESAASGGAAYTKRYLEEQKTENGKDKEQKQTNTDKEKIKEKGSFSDTGLGDGKMKSDSFAPKTDSEKPFRGSQSPKRYKLRDDFEKKMADFHKEEMDDQDKDKAKGRKESEFDDEPKFMSKVIGANKNQEEEKSGKWEGLVYAPPGKEKQRKTEELEEESFPERSKKEDRGKRSEGGHRGFVPEKNFRVTAYKAVQEKSSSPPPRKTSESRDKLGAKGDFPTGKSSFSITREAQVNVRMDSFDEDLARPSGLLAQERKLCRDLVHSNKKEQEFRSIFQHIQSAQSQRSPSELFAQHIVTIVHHVKEHHFGSSGMTLHERFTKYLKRGTEQEAAKNKKSPEIHRRIDISPSTFRKHGLAHDEMKSPREPGYKAEGKYKDDPVDLRLDIERRKKHKERDLKRGKSRESVDSRDSSHSRERSAEKTEKTHKGSKKQKKHRRARDRSRSSSSSSQSSHSYKAEEYTEETEEREESTTGFDKSRLGTKDFVGPSERGGGRARGTFQFRARGRGWGRGNYSGNNNNNSNNDFQKRNREEEWDPEYTPKSKKYYLHDDREGEGSDKWVSRGRGRGAFPRGRGRFMFRKSSTSPKWAHDKFSGEEGEIEDDESGTENREEKDNIQPTTE
notes: pGEX-6-P1; also called GST-TRAP150ΔN; TRAP150-ΔN; source: E. coli Rosetta(DE3)pLysS, purified (glutathione sepharose, SEC); not shown: GST, N-terminal, kept
B5: HisFLAG-PSF ΔRRM1 (natural protein)
chain: MSRDRFRSRGGGGGGFHRRGGGGGRGGLHDFRSPPPGMGLNQNRGPMGPGPGQSGPKPPIPPPPPHQQQQQPPPQQPPPQQPPPHQPPPHPQPHQQQQPPPPPQDSSKPVVAQGPGPAPGVGSAPPASSSAPPATPPTSGAPPGSGPGPTPTPPPAVTSAPPGAPPPTPPSSGVPTTPPQAGGPPPPPAAVPGPGPGPKQGPGPGGPKGGKMPGGPKPGGGPGLSTPGGHPKPPHRGGGEPRGGRQHHPPYHQQHHQGPPPGGPGGRSEEKISDSEGFKANLSLLRRPGEKTYTQRCRGGSGHMATHAAALSVRNLSPYVSNELLEEAFSQFGPIERAVVIVDDRGRSTGKGIVEFASKPAARKAFERCSEGVFLLTTTPRPVIVEPLEQLDDEDGLPEKLAQKNPMYQKERETPPRFAQHGTFEYEYSQRWKSLDEMEKQQREQVEKNMKDAKDKLESEMEDAYHEHQANLLRQDLMRRQEELRRMEELHNQEMQKRKEMQLRQEEERRRREEEMMIRQREMEEQMRRQREESYSRMGYMDPRERDMRMGGGGAMNMGDPYGSGGQKFPPLGGGGGIGYEANPGVPPATMSGSMMGSDMRTERFGQGGAGPVGGQGPRGMGPGTPAGYGRGREEYEGPNKKPRF
notes: PSF (SFPQ) residues 1-298; linker joining the N- and C-terminal portions; PSF (SFPQ) residues 367-707; source: E. coli Rosetta(DE3)pLysS, purified (Ni-NTA, SEC); not shown: His6, N-terminal, kept; FLAG, N-terminal, kept
B6: SRL-1 (ssRNA)
RNA: AACCAAGAGGUUUCUCGCGUAUUUCUCUCAUUUUUUUACCCAUUUUACAAAUUUUUUUUGCUAUUUGAGCCAUAGUACCCAUUAAUAGGUCUCGUCCAUUCCCUUGUUUUUUUUUUAUUGUUUCAAUUACACUACAUAAUUAAAAAUCACAUCACUUUCACUCUCACCUUAGUCGUUCUUUAUCAACCAAAAAUAAAAAAAUGCUUCAAUCCGUUGUCUU
B7: MKK7 (ssRNA)
RNA: CCUCCUCGUUUAUGAUUUGAUUUCUUUUCUUUUGGACGAAUCGGUCGUUUCUGUUGUGAUUUAUCGUGGUGUUGUUUUUUUCUUCCUUUUCCCCAUCCAG
B8: GST-TRAP150 580–755 (domain or fragment, UniProt Q9Y2W1 580-755, looked up)
chain: LARPSGLLAQERKLCRDLVHSNKKEQEFRSIFQHIQSAQSQRSPSELFAQHIVTIVHHVKEHHFGSSGMTLHERFTKYLKRGTEQEAAKNKKSPEIHRRIDISPSTFRKHGLAHDEMKSPREPGYKAEGKYKDDPVDLRLDIERRKKHKERDLKRGKSRESVDSRDSSHSRERSAE
notes: source: E. coli Rosetta(DE3)pLysS, purified (glutathione sepharose, SEC); not shown: GST, N-terminal, kept

Data set [1] deals with B4. Put plainly: pull-down; 40 ug GST-tagged bait on glutathione sepharose 4B beads; prey incubated 1.5 h at 4°C in PBS; washes with PBS supplemented with 300 mM NaCl; western blot. Particulars: both partners purified. A general note: Immunoblotting shows a protein as a band on a membrane.
In data set [2] the target is T1, HisFLAG-PSF exRRMs (266-484) (UniProt P23246 266-484).
T1 construct: also called HisFLAG-exRRMs; HFexRRM1+2; source: E. coli Rosetta(DE3)pLysS, purified (Ni-NTA, SEC); not shown: His6, N-terminal, kept; FLAG, N-terminal, kept
T1 sequence (looked up): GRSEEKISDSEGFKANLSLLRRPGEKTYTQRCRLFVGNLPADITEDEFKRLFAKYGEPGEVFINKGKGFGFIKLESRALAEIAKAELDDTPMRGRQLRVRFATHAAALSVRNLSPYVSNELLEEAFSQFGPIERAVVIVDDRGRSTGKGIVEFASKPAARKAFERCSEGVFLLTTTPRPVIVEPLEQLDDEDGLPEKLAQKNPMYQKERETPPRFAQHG
The description is as above. Particulars: both partners purified.

For data set [3], the target named is T1, HisFLAG-PSF exRRMs (266-484). The experiment in a line: pull-down; Gb1-tagged TRAP150 686-755 precipitated with IgG beads; HisFLAG-exRRMs detected. Particulars: both partners purified.
In another data set the target is T2, HisFLAG-PSF full length (UniProt P23246 1-707).
T2 construct: PSF (SFPQ), full length; pet15b with an inserted FLAG tag; also called PSF-FL; full length His-tagged PSF; source: E. coli Rosetta(DE3)pLysS, purified (Ni-NTA, SEC); not shown: His6, N-terminal, kept; FLAG, N-terminal, kept
T2 sequence (looked up): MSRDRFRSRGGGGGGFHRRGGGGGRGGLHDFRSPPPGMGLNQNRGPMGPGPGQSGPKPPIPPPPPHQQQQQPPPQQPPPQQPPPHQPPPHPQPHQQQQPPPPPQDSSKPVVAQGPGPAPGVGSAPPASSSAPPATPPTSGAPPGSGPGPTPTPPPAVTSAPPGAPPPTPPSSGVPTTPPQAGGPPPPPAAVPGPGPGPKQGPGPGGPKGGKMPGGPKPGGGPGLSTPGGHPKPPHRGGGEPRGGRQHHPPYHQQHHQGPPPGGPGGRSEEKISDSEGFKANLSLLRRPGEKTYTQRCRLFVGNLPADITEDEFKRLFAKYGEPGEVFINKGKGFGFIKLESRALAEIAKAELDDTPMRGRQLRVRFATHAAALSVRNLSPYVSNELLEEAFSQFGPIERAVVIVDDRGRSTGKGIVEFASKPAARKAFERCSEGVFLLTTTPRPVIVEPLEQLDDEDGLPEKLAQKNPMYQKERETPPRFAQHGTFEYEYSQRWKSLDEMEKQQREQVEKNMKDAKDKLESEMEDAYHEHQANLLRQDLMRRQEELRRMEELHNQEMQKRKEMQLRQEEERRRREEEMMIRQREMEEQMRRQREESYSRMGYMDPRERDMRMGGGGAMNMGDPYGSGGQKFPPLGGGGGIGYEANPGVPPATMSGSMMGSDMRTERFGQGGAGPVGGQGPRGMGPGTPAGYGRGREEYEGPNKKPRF
The experiment in a line: pull-down; 40 ug GST-tagged bait on glutathione sepharose 4B beads; prey incubated 1.5 h at 4°C in PBS; washes with PBS supplemented with 300 mM NaCl; western blot. Particulars: both partners purified.

The target of a further data set is T3, PSF exRRMs (human, UniProt P23246 266-484).
T3 sequence: T1 sequence (looked up)
The experiment in a line: EMSA; UV crosslinking: 12 mM Tris pH 7.5, 120 mM NaCl, 3 mM MgCl2, 1 mM ATP, 20 mM phosphocreatine, 0.1 mM EDTA, 12% glycerol, 1.3% PVA, 25 ng/ul yeast tRNA, 20 ng/ul. Particulars: protein: recombinant; tags: 6xHis-FLAG N-term; label: uniform 32P. Background: A gel shift assay detects complexes by their altered migration in electrophoresis.

The target in a further data set is T4, PSF exRRM2 (human, UniProt P23246 366-484).
T4 sequence: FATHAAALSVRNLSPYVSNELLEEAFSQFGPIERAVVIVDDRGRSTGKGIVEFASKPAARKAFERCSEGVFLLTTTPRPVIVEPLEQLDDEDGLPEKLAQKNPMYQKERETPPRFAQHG
The data set is described as above. Particulars: protein: recombinant; tags: 6xHis-FLAG N-term; label: uniform 32P.

In the next data set the target is T5, PSF exRRM1 (human, UniProt P23246 266-365).
T5 sequence: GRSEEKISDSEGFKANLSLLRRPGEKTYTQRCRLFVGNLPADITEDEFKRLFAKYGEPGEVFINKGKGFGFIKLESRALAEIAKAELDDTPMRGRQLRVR
The experiment in a line: EMSA; unmeasurable affinity; UV crosslinking: 12 mM Tris pH 7.5, 120 mM NaCl, 3 mM MgCl2, 1 mM ATP, 20 mM phosphocreatine, 0.1 mM EDTA, 12% glycerol, 1.3% PVA, 25 ng/ul yeast tRNA, 20 ng/ul. Particulars: protein: recombinant; tags: 6xHis-FLAG N-term; label: uniform 32P.

In the case of B1, the binding result in data set [1] is “binds”. As for B2, in data set [2], the binding result is “binds”. In the case of B3, in data set [3], the binding result is “binds”. Regarding B4, the binding result with HisFLAG-PSF full length was “binds”. B5: the binding result in data set [1] is given as “binds”.

As to B6, the binding result is on record as “binds” with PSF exRRMs, “binds” in the data set with PSF exRRM2 and “no binding” with PSF exRRM1. For the molecule B7, the binding result was “binds” in the data set with PSF exRRMs, “binds” with PSF exRRM2 and “no binding” with PSF exRRM1. As for B8, in data set [2], the binding result was “binds”.
